Assays:
UGT1A1 = target: T1, UGT1A1 (Homo sapiens, UniProt P22309); conditions: tRes-3-O-glucuronidation; cited from earlier work
T1 sequence (P22309 26-533): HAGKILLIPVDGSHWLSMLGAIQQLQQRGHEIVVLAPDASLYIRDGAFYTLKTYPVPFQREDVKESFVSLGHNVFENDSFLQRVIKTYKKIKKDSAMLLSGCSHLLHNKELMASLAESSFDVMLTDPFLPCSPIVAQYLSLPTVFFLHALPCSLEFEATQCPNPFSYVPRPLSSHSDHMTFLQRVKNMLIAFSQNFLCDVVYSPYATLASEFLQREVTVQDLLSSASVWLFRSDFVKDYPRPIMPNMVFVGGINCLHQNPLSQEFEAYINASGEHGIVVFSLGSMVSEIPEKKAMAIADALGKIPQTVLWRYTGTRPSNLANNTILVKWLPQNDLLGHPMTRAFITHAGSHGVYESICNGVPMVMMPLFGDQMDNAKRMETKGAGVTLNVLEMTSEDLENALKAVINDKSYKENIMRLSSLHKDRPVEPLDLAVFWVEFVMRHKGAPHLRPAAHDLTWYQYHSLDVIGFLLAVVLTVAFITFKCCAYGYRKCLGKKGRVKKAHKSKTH

UGT1A9 = target: T2, UGT1A9 (Homo sapiens, UniProt O60656); conditions: cited from earlier work; for Km: affinity of UGT1A9 for tRes and natural analogs
T2 sequence (O60656 26-530): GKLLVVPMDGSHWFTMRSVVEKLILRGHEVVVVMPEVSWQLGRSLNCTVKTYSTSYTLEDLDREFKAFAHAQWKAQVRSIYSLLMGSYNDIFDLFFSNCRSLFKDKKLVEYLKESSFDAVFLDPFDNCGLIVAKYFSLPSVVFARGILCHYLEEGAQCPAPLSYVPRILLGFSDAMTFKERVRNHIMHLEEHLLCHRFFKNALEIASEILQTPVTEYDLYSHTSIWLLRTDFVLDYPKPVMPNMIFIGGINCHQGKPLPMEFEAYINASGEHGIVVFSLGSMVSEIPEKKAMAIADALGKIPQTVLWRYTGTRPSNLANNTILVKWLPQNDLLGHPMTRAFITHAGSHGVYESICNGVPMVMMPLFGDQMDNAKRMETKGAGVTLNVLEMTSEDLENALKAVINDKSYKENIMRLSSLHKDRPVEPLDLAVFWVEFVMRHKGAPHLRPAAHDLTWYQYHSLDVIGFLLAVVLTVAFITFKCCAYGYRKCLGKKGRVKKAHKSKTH

[1] = substrate: COc1ccc(/C=C(/C(=O)O)c2cc(OC)c(OC)c(OC)c2)cc1O; assay: Steady state kinetics of glucuronidation by recombinant UGT1A8; format: in vitro ADME, human; conditions: other: NI-12a-O-gluc formation, UDP-GlcUA 3 mM, 60 min, 37 °C
[2] = substrate: COc1ccc(C=Cc2cc(OC)cc(OC)c2/C=N/O)cc1; assay: Steady state kinetics of glucuronidation by recombinant UGT1A10; format: in vitro ADME, human; conditions: other: NI-ST-05–N–O-gluc formation; Hill equation (S50)
[3] = substrate: COc1ccc(/C=C(/C(=O)O)c2cc(OC)c(OC)c(OC)c2)cc1O; assay: as above; format: in vitro ADME, human; conditions: other: NI-12a-O-gluc formation; UDP-GlcUA 3 mM, 60 min, 37 °C
[4] = substrate: COc1ccc(/C=C(/C(=O)O)c2cc(OC)c(OC)c(OC)c2)cc1O; assay: Steady state kinetics of glucuronidation by recombinant UGT1A9; format: in vitro ADME, human; conditions: other: NI-12a-O-gluc formation, UDP-GlcUA 3 mM, 60 min, 37 °C
[5] = substrate: COc1ccc(/C=C(/C(=O)O)c2cc(OC)c(OC)c(OC)c2)cc1O; assay: Steady state kinetics of glucuronidation by recombinant UGT1A7; format: in vitro ADME, human; conditions: other: NI-12a-O-gluc formation, UDP-GlcUA 3 mM, 60 min, 37 °C
[6] = substrate: COc1ccc(C=Cc2cc(OC)cc(OC)c2/C=N/O)cc1; assay: Steady state kinetics of glucuronidation by recombinant UGT1A1; format: in vitro ADME, human; conditions: other: NI-ST-05–N–O-gluc formation; estimated based on an incomplete data set

In the case of `Oc1ccc(/C=C/c2cc(O)cc(O)c2)cc1` [tRes, trans-3,5,4′-trihydroxystilbene], the Vmax (UGT1A1) is given as 31 nmol/mg/min, the Km (UGT1A9) is given as 2.5 µM and the Vmax (UGT1A9; tRes-3-O-glucuronide formation) is given as 2.5 nmol/mg/min.

For `CC(C)/C=C/c1c(O)cc(/C=C/c2ccc(O)cc2)cc1O` [tA3], the Km (UGT1A9) is listed as 21 µM.

For trans-arachidin-1 [tA1], the Km (UGT1A9) is listed as 190 µM.

B1: UGT1A8 (Homo sapiens) (protein)
chain: GKLLVVPMDGSHWFTMQSVVEKLILRGHEVVVVMPEVSWQLGKSLNCTVKTYSTSYTLEDLDREFMDFADAQWKAQVRSLFSLFLSSSNGFFNLFFSHCRSLFNDRKLVEYLKESSFDAVFLDPFDACGLIVAKYFSLPSVVFARGIACHYLEEGAQCPAPLSYVPRILLGFSDAMTFKERVRNHIMHLEEHLFCQYFSKNALEIASEILQTPVTAYDLYSHTSIWLLRTDFVLDYPKPVMPNMIFIGGINCHQGKPLPMEFEAYINASGEHGIVVFSLGSMVSEIPEKKAMAIADALGKIPQTVLWRYTGTRPSNLANNTILVKWLPQNDLLGHPMTRAFITHAGSHGVYESICNGVPMVMMPLFGDQMDNAKRMETKGAGVTLNVLEMTSEDLENALKAVINDKSYKENIMRLSSLHKDRPVEPLDLAVFWVEFVMRHKGAPHLRPAAHDLTWYQYHSLDVIGFLLAVVLTVAFITFKCCAYGYRKCLGKKGRVKKAHKSKTH
Work on B1 yielded a Km [1] of 240 ± 76 µM, a Vmax [1] of 6.0 ± 1.3 nmol/mg/min and a Vmax/Km [1] of 25 µL/min/mg.

B2: UGT1A10 (Homo sapiens) (protein)
chain: GKLLVVPMDGSHWFTMQSVVEKLILRGHEVVVVMPEVSWQLERSLNCTVKTYSTSYTLEDQNREFMVFAHAQWKAQAQSIFSLLMSSSSGFLDLFFSHCRSLFNDRKLVEYLKESSFDAVFLDPFDTCGLIVAKYFSLPSVVFTRGIFCHHLEEGAQCPAPLSYVPNDLLGFSDAMTFKERVWNHIVHLEDHLFCQYLFRNALEIASEILQTPVTAYDLYSHTSIWLLRTDFVLDYPKPVMPNMIFIGGINCHQGKPLPMEFEAYINASGEHGIVVFSLGSMVSEIPEKKAMAIADALGKIPQTVLWRYTGTRPSNLANNTILVKWLPQNDLLGHPMTRAFITHAGSHGVYESICNGVPMVMMPLFGDQMDNAKRMETKGAGVTLNVLEMTSEDLENALKAVINDKSYKENIMRLSSLHKDRPVEPLDLAVFWVEFVMRHKGAPHLRPAAHDLTWYQYHSLDVIGFLLAVVLTVAFITFKCCAYGYRKCLGKKGRVKKAHKSKTH
B2 showed a K0.5 [2] of 6.2 ± 0.35 µM, a Vmax [2] of 0.00065 µmol/min/mg and a Vmax/Km [2] of 105 µL/min/mg. It also gave a Km [3] of 500 ± 75 µM, a Vmax [3] of 3.5 ± 0.24 nmol/mg/min and a Vmax/Km [3] of 7 µL/min/mg.

B3: UGT1A9 (Homo sapiens) (protein)
chain: T2 sequence (O60656 26-530)
In the case of B3, the Km [4] is reported as 240 ± 40 µM, the Vmax [4] is reported as 0.0083 µmol/min/mg and the Vmax/Km [4] is reported as 35 µL/min/mg.

B4: UGT1A7 (Homo sapiens) (protein)
chain: GKLLVVPMDGSHWFTMQSVVEKLILRGHEVVVVMPEVSWQLGRSLNCTVKTYSTSYTLEDQDREFMVFADARWTAPLRSAFSLLTSSSNGIFDLFFSNCRSLFNDRKLVEYLKESCFDAVFLDPFDACGLIVAKYFSLPSVVFARGIFCHYLEEGAQCPAPLSYVPRLLLGFSDAMTFKERVWNHIMHLEEHLFCPYFFKNVLEIASEILQTPVTAYDLYSHTSIWLLRTDFVLEYPKPVMPNMIFIGGINCHQGKPVPMEFEAYINASGEHGIVVFSLGSMVSEIPEKKAMAIADALGKIPQTVLWRYTGTRPSNLANNTILVKWLPQNDLLGHPMTRAFITHAGSHGVYESICNGVPMVMMPLFGDQMDNAKRMETKGAGVTLNVLEMTSEDLENALKAVINDKSYKENIMRLSSLHKDRPVEPLDLAVFWVEFVMRHKGAPHLRPAAHDLTWYQYHSLDVIGFLLAVVLTVAFITFKCCAYGYRKCLGKKGRVKKAHKSKTH
B4 showed a Km [5] of 62 ± 43 µM, a Vmax [5] of 2.2 ± 0.77 nmol/mg/min and a Vmax/Km [5] of 35 µL/min/mg.

B5: UGT1A1 (Homo sapiens) (protein)
chain: T1 sequence (P22309 26-533)
In the case of B5, the Vmax [6] is reported as 0.00021 ± 2e-05 µmol/min/mg.

— publication PMC4002122 (Chemical Research in Toxicology, 2014)
